Experimental data as given in IntAct's records for PubMed 31515488.

B1: Ubiquitin-conjugating enzyme E2 E3 (Homo sapiens), Q969T4 (parent)
chain: MSSDRQRSDDESPSTSSGSSDADQRDPAAPEPEEQEERKPSATQQKKNTKLSSKTTAKLSTSAKRIQKELAEITLDPPPNCSAGPKGDNIYEWRSTILGPPGSVYEGGVFFLDITFSSDYPFKPPKVTFRTRIYHCNINSQGVICLDILKDNWSPALTISKVLLSICSLLTDCNPADPLVGSIATQYLTNRAEHDRIARQWTKRYAT
partner: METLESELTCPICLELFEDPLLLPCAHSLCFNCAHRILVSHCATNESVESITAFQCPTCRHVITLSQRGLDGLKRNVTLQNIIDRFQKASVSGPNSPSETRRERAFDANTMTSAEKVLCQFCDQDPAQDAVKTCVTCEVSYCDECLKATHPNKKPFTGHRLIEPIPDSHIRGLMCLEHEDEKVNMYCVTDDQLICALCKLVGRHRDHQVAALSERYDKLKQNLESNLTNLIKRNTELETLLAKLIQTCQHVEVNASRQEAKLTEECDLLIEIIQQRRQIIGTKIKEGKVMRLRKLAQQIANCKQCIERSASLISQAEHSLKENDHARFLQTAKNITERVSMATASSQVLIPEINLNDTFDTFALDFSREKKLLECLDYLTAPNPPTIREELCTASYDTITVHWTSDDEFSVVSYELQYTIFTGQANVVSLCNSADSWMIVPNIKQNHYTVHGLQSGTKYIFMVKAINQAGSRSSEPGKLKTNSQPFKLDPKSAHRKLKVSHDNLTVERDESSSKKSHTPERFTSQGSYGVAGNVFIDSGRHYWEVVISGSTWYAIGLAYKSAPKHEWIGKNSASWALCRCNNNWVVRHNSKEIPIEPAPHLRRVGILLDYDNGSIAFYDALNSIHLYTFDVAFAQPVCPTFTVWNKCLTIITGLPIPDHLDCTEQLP
B2: Isoform 1 of Aminoacylase-1 (Homo sapiens), Q03154-1 (parent)
chain: MTSKGPEEEHPSVTLFRQYLRIRTVQPKPDYGAAVAFFEETARQLGLGCQKVEVAPGYVVTVLTWPGTNPTLSSILLNSHTDVVPVFKEHWSHDPFEAFKDSEGYIYARGAQDMKCVSIQYLEAVRRLKVEGHRFPRTIHMTFVPDEEVGGHQGMELFVQRPEFHALRAGFALDEGIANPTDAFTVFYSERSPWWVRVTSTGRPGHASRFMEDTAAEKLHKVVNSILAFREKEWQRLQSNPHLKEGSVTSVNLTKLEGGVAYNVIPATMSASFDFRVAPDVDFKAFEEQLQSWCQAAGEGVTLEFAQKWMHPQVTPTDDSNPWWAAFSRVCKDMNLTLEPEIMPAATDNRYIRAVGVPALGFSPMNRTPVLLHDHDERLHEAVFLRGVDIYTRLLPALASVPALPSDS
partner: B2 chain
B3: Coiled-coil domain-containing protein 70 (Homo sapiens), Q6NSX1 (parent)
chain: MFSFKVSRWMGLACFRSLAASSPSIRQKKLMHKLQEEKAFREEMKIFREKIEDFREEMWTFRGKIHAFRGQILGFWEEERPFWEEEKTFWKEEKSFWEMEKSFREEEKTFWKKYRTFWKEDKAFWKEDNALWERDRNLLQEDKALWEEEKALWVEERALLEGEKALWEDKTSLWEEENALWEEERAFWMENNGHIAGEQMLEDGPHNANRGQRLLAFSRGRA
partner: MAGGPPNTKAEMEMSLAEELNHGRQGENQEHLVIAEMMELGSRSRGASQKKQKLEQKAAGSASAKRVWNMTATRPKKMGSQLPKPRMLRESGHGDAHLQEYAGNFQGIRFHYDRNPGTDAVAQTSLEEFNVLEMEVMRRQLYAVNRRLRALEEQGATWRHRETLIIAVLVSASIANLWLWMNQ
B4: Protein PALS1 (Homo sapiens), Q8N3R9 (parent)
chain: MTTSHMNGHVTEESDSEVKNVDLASPEEHQKHREMAVDCPGDLGTRMMPIRRSAQLERIRQQQEDMRRRREEEGKKQELDLNSSMRLKKLAQIPPKTGIDNPMFDTEEGIVLESPHYAVKILEIEDLFSSLKHIQHTLVDSQSQEDISLLLQLVQNKDFQNAFKIHNAITVHMNKASPPFPLISNAQDLAQEVQTVLKPVHHKEGQELTALLNTPHIQALLLAHDKVAEQEMQLEPITDERVYESIGQYGGETVKIVRIEKARDIPLGATVRNEMDSVIISRIVKGGAAEKSGLLHEGDEVLEINGIEIRGKDVNEVFDLLSDMHGTLTFVLIPSQQIKPPPAKETVIHVKAHFDYDPSDDPYVPCRELGLSFQKGDILHVISQEDPNWWQAYREGDEDNQPLAGLVPGKSFQQQREAMKQTIEEDKEPEKSGKLWCAKKNKKKRKKVLYNANKNDDYDNEEILTYEEMSLYHQPANRKRPIILIGPQNCGQNELRQRLMNKEKDRFASAVPHTTRSRRDQEVAGRDYHFVSRQAFEADIAAGKFIEHGEFEKNLYGTSIDSVRQVINSGKICLLSLRTQSLKTLRNSDLKPYIIFIAPPSQERLRALLAKEGKNPKPEELREIIEKTREMEQNNGHYFDTAIVNSDLDKAYQELLRLINKLDTEPQWVPSTWLR
partner: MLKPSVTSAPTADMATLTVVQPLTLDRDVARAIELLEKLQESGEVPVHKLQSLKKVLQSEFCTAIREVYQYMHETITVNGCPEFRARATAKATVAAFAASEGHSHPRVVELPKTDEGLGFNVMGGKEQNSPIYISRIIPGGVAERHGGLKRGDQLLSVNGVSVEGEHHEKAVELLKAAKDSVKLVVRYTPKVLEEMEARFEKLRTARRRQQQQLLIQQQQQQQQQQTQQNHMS
B5: Notch homolog 2 N-terminal-like protein A (Homo sapiens), Q7Z3S9 (parent)
chain: MCVTYHNGTGYCKCPEGFLGEYCQHRDPCEKNRCQNGGTCVAQAMLGKATCRCASGFTGEDCQYSTSHPCFVSRPCLNGGTCHMLSRDTYECTCQVGFTGKECQWTDACLSHPCANGSTCTTVANQFSCKCLTGFTGQKCETDVNECDIPGHCQHGGTCLNLPGSYQCQCLQGFTGQYCDSLYVPCAPSPCVNGGTCRQTGDFTFECNCLPETVRRGTELWERDREVWNGKEHDEN
partner: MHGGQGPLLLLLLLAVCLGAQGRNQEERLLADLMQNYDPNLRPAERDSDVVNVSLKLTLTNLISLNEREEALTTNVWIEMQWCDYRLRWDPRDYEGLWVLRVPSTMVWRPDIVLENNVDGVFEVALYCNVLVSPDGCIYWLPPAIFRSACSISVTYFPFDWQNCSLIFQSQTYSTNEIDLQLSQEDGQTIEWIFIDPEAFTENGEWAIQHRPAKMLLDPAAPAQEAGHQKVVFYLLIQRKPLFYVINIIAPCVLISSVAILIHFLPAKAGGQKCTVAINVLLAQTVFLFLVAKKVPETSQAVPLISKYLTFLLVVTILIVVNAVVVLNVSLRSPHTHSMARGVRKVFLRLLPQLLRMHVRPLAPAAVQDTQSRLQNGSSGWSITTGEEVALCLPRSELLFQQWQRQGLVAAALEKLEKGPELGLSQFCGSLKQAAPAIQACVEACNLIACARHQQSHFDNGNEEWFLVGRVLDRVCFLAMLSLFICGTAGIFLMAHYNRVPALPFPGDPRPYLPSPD
B6: Armadillo repeat-containing protein 1 (Homo sapiens), Q9NVT9 (parent)
chain: MNSSTSTMSEEPDALSVVNQLRDLAADPLNRRAIVQDQGCLPGLILFMDHPNPPVVHSALLALRYLAECRANREKMKGELGMMLSLQNVIQKTTTPGETKLLASEIYDILQSSNMADGDSFNEMNSRRRKAQFFLGTTNKRAKTVVLHIDGLDDTSRRNLCEEALLKIKGVISFTFQMAVQRCVVRIRSDLKAEALASAIASTKVMKAQQVVKSESGEEMLVPFQDTPVEVEQNTELPDYLPEDESPTKEQDKAVSRVGSHPEGGASWLSTAANFLSRSFYW
B7: Syntenin-2 (Homo sapiens), Q9H190 (parent)
chain: MSSLYPSLEDLKVDQAIQAQVRASPKMPALPVQATAISPPPVLYPNLAELENYMGLSLSSQEVQESLLQIPEGDSTAVSGPGPGQMVAPVTGYSLGVRRAEIKPGVREIHLCKDERGKTGLRLRKVDQGLFVQLVQANTPASLVGLRFGDQLLQIDGRDCAGWSSHKAHQVVKKASGDKIVVVVRDRPFQRTVTMHKDSMGHVGFVIKKGKIVSLVKGSSAARNGLLTNHYVCEVDGQNVIGLKDKKIMEILATAGNVVTLTIIPSVIYEHMVKKLPPVLLHHTMDHSIPDA
partner: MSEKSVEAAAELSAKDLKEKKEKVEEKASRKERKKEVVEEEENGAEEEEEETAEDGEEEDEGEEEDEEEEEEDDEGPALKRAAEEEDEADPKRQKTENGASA
B8: Centrosomal protein of 55 kDa (Homo sapiens), Q53EZ4 (parent)
chain: MSSRSTKDLIKSKWGSKPSNSKSETTLEKLKGEIAHLKTSVDEITSGKGKLTDKERHRLLEKIRVLEAEKEKNAYQLTEKDKEIQRLRDQLKARYSTTTLLEQLEETTREGERREQVLKALSEEKDVLKQQLSAATSRIAELESKTNTLRLSQTVAPNCFNSSINNIHEMEIQLKDALEKNQQWLVYDQQREVYVKGLLAKIFELEKKTETAAHSLPQQTKKPESEGYLQEEKQKCYNDLLASAKKDLEVERQTITQLSFELSEFRRKYEETQKEVHNLNQLLYSQRRADVQHLEDDRHKTEKIQKLREENDIARGKLEEEKKRSEELLSQVQFLYTSLLKQQEEQTRVALLEQQMQACTLDFENEKLDRQHVQHQLHVILKELRKARNQITQLESLKQLHEFAITEPLVTFQGETENREKVAASPKSPTAALNESLVECPKCNIQYPATEHRDLLVHVEYCSK
partner: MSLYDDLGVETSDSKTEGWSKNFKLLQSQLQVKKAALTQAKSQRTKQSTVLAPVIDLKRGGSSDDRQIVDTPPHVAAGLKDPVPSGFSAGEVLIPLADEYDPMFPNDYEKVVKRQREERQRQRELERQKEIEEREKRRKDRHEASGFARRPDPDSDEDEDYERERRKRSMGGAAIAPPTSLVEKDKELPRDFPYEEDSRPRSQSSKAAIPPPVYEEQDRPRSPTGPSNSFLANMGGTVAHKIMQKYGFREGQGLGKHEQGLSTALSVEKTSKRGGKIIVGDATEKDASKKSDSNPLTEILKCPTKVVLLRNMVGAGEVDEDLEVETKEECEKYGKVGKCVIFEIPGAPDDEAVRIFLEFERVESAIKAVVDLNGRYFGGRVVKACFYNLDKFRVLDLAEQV

Variants of: B1
Settings: with tri18_human MID1, O15344

Row | Variant | effect of a mutation on the interaction
1 | S117T | with no effect

Variants of: B2
Settings: with acy1_human ACY1, Q03154

Row | Variant | effect of a mutation on the interaction
2 | E381D | with no effect

Variants of: B3
Settings: with fate1_human FATE1, Q969F0

Row | Variant | effect of a mutation on the interaction
3 | M200V | with no effect
4 | R62Q | with no effect

Variants of: B4
Settings: with lin7a_human LIN7A

Row | Variant | effect of a mutation on the interaction
5 | S141Y | with no effect

Variants of: B5
Settings: with achg_human CHRNG

Row | Variant | effect of a mutation on the interaction
6 | R74Q | with no effect
7 | A115T | with no effect

Variants of: B6
Settings: with mfr1l_human MTFR1L

Row | Variant | effect of a mutation on the interaction
8 | M83T | with no effect

Variants of: B7
Settings: with ptms_human PTMS

Row | Variant | effect of a mutation on the interaction
9 | R223C | disrupting interaction strength

Variants of: B8
Settings: with spf45_human RBM17, Q96I25

Row | Variant | effect of a mutation on the interaction
10 | A244P | with no effect
11 | H57Q | with no effect
